{"source": "patent US20240400722A1", "about": "“Chemically Inducible Heterodimerizing System and A Method For Generation Thereof” (Miltenyi Biotec B.V. & Co. KG, priority 2023, published 2024)", "molecules": {"B1": {"name": "acVHH-V104D: acVHH-WT variant with point mutation V104D, SEQ ID NO:2; first antigen binding domain AB1 (protein)", "VHH": "QVQLVESGGGLVQAGGSLRLSCTASGRTGTIYSMAWFRQAPGKEREFLATVGWSSGITYYMDSVKGRFTISRDKGKNTVYLQMDSLKPEDTAVYYCTATRAYSDGYDYWGQGTQVTVSS"}, "B2": {"name": "acVHH-M1 (protein)", "chain": "B1 VHH with T50P, G52A, W53L, S54G, S55L, G56Q, I57S, D104V", "modifications": "left off: large carriers; small tags and cut ends"}, "B3": {"name": "acVHH-WT: existing thermally stable caffeine-specific single domain antibody fragment from llama used for homodimerization, SEQ ID NO:1 (protein)", "VHH": "B1 VHH with D104V"}, "B4": {"name": "acVHH-M2 (protein)", "chain": "B1 VHH with T50Q, V51Q, G52R, S54L, S55F, G56R, I57R, D104V", "modifications": "left off: large carriers; small tags and cut ends"}, "B5": {"name": "dfM1-1 (protein)", "chain": "QVQLVESGGGLVQAGGSLRLSATAYGKTGTIYSMAWFRQAPGKEREFLAPVALGLQSTYYMDSVKGRFTISRDKGKNTVYLQMDSLKPEDTAVYYAAATRAYSVGYDYWGQGTQVTVTS", "modifications": "left off: large carriers; small tags and cut ends"}, "B6": {"name": "dfM1-2 (protein)", "chain": "B5 chain with Q1E, K27R, T118S", "modifications": "left off: large carriers; small tags and cut ends"}}, "key": {"[1]": {"assay": "Preparative size exclusion chromatography of acVHH variants", "format": "physicochemical", "conditions": "HiLoad Superdex 75 pg, elution in PBS", "experimental": "Protein aggregates were removed via preparative size exclusion chromatography (SEC). The samples were first centrifuged at 16 000 rpm for 3 min to remove large aggregates and the supernatant was loaded onto a HiLoad Superdex 75 pg column connected to a Bio-Rad NG-C chromatography system. Elution was performed in PBS and the fractions containing proteins based on absorbance at 280 nm were pooled, concentrated as mentioned above and stored at −30° C."}, "[2]": {"system": "acVHH-V104D", "assay": "NanoBiT protein complementation assay in Jurkat T cells, intracellular binding to acVHH-V104D", "format": "cell-based, llama", "conditions": "for background signal at very low concentrations of caffeine / background signal in the absence of caffeine: compared with acVHH-WT/acVHH-WT homodimers", "excerpt": "(§1) The ac VHH variants were N-terminally fused to an extracellular globular domain used to assess expression, as well as a transmembrane domain, and C-terminally fused to a subunit of the split NanoLuc (NanoBiT® system), Promega. Thus, the resulting fusion protein consisted of an extracellular globular domain, followed by a transmembrane domain and intracellular ac VHH variants followed by a subunit of split NanoLuc luciferase.\nThe different chains built were as follows: the first polypeptide chain comprised truncated EGFR extracellular and transmembrane domain, followed by a 2×G4S linker and cither ac VHH-V104D or ac VHH-WT, followed by a linker (SEQ ID NO:31) and 11S NanoBiT® “Large BiT”, whereas the second polypeptide chain comprised truncated HER2 extracellular and transmembrane domain, followed by a linker (SEQ ID NO:32) and either ac VHH-V104D or ac VHH-WT or ac VHH-M1 or acVHH-M2 or dfM1-1 or dfM1-2, followed by a linker (SEQ ID NO:33) and 114 NanoBiT® “Small BiT”. The sequence of the truncated HER2 extracellular and transmembrane domain involved the amino acids at positions 339-683 according to the deposited Uniprot sequence (ID P04626). The sequence of the truncated EGFR extracellular and transmembrane domain involved the amino acids at positions 334-675 according to the deposited Uniprot sequence (ID P00533). The principle of the assay is as follows: upon binding of (i.e. dimerization) of the respective ac VHH variants, the fused NanoLuc luciferase subunits are brought into close proximity (the two subunits being fused to the two different polypeptide chains, respectively), thus resulting in a functional luciferase enzyme, whose activity can be measured.\nIn vitro transcription was performed with 200 ng of purified PCR product using the mMessage mMachine T7 Ultra Kit (Ambion) according to the manufacturer's instructions. The resulting mRNAs were column purified with the RNeasy Kit (Qiagen), aliquoted to 5 μg and frozen at −80° C. until electroporation. Jurkat T cells were electroporated with 5 μg mRNA per chain (10 μg mRNA total) using the Gene Pulser (Bio-Rad) and the following parameters: square wave protocol, 500 V, 5 ms, 4 mm cuvettes.\nIntracellular function of the dimers was assessed with the Nano-Glo® Luciferase Assay System (Promega)."}, "[3]": {"system": "acVHH-V104D", "assay": "Yeast surface display binding of acVHH variants to soluble acVHH-V104D", "design": "species or system llama", "conditions": "for background binding signal in the absence of any small molecule: 500 nM soluble acVHH-V104D, buffer only (control, PBSA); for affinity towards acVHH-V104D: summary statement, interaction dependent on caffeine; for affinity (KD) to acVHH-V104D: titration with soluble acVHH-V104D in the presence of 30 μM caffeine; for dependency of heterodimerization with acVHH-V104D on the presence of caffeine: yeast display flow cytometry, with or without caffeine", "experimental": "The staining for flow cytometry characterization was performed in PBSA (PBS containing 15 μM bovine serum albumin). […] In addition, controls with buffer only (containing neither an ac VHH variant nor caffeine) were included. After a washing step the cells were stained for 20 min at 4° C. and shaking with either streptavidin-Alexa Fluor 647 (Invitrogen) or Penta-His-Alexa Fluor 647 (Qiagen) to assess acVHH-V104D or acVHH-WT binding, as well as anti-HA-Alexa Fluor 488 (clone 16B12, Biolegend) or anti-c-myc AlexaFluor 488 (9E10, Thermofisher) to assess display (anti-HA) or full-length display (anti-c-myc) of the acVHH variants, respectively. After a final washing step, the cells were analyzed with a CytoFLEX S flow cytometer (Beckman Coulter).\nExpression of the acVHH variants on yeast was induced by culturing the cells in SG-CAA medium (20 g/L galactose, 2 g/L glucose, 6.7 g/L yeast nitrogen base, 5 g/L bacto casamino acids, 10.2 g/L Na2HPO4*7 H2O, 8.56 g/L NaH2PO4*H2O) overnight at 20° C. and 180 rpm. Detection of full-length proteins on the surface of the cells was carried out by staining the cells with anti-c-myc AlexaFluor 488 (9E10, Thermo Fisher). […] After a washing step with PBSA, they were stained with an anti-HA-Alexa Fluor 488 (BioLegend) to gate for displaying yeast cells and the geometric mean fluorescence intensity (gMFI) of binding to acVHH-V104D, detected by co-staining with a Penta-His-Alexa Fluor 647 (Qiagen) (recognizing the His-tag on acVHH-V104D) was measured.\nExpression of the variants on yeast was carried out in SG-CAA as described above. Full length display was assessed by staining with an anti-c-myc AlexaFluor 488 (9E10, Thermo Fisher) and binding to soluble acVHH-V104D was assessed by staining with Penta-His-Alexa Fluor 647 (Qiagen).\n56 clones of the library were sequenced as explained in Example 2. Only 2 variants were obtained, namely dfM1-1 and dfM1-2. Their binding and affinity to soluble acVHH-V104D as well as full length display was assessed with yeast surface display as described in Example 2."}, "[4]": {"system": "acVHH-WT", "assay": "NanoBiT protein complementation assay in Jurkat T cells, acVHH-WT homodimer", "format": "cell-based, llama", "excerpt": "as §1\nThe different chains built were as follows: the first polypeptide chain comprised truncated EGFR extracellular and transmembrane domain, followed by a 2×G4S linker and cither ac VHH-V104D or ac VHH-WT, followed by a linker (SEQ ID NO:31) and 11S NanoBiT® “Large BiT”, whereas the second polypeptide chain comprised truncated HER2 extracellular and transmembrane domain, followed by a linker (SEQ ID NO:32) and either ac VHH-V104D or ac VHH-WT or ac VHH-M1 or acVHH-M2 or dfM1-1 or dfM1-2, followed by a linker (SEQ ID NO:33) and 114 NanoBiT® “Small BiT”. […] The principle of the assay is as follows: upon binding of (i.e. dimerization) of the respective ac VHH variants, the fused NanoLuc luciferase subunits are brought into close proximity (the two subunits being fused to the two different polypeptide chains, respectively), thus resulting in a functional luciferase enzyme, whose activity can be measured. […]"}, "[5]": {"conditions": "+/- 30 μM caffeine, normalized to acVHH-WT homodimer with caffeine"}, "[6]": {"conditions": "increasing concentrations of caffeine"}}, "note": "Where a chain is given by its changes, count along the chain named. Names and notes keep the numbering of the source. “Also recorded” adds a separate entry of the source."}
{"molecule": "B1", "values": [{"measurement": "preparative SEC profile", "setting": "[1]", "value": "monomeric profile; also recorded: elutes as a defined monomeric peak"}, {"measurement": "intracellular binding with acVHH-V104D", "setting": "[2]; [5]", "value": "does not show any detectable homodimerization"}, {"measurement": "intracellular binding with acVHH-V104D", "setting": "[2]; [6]", "value": "does not show any detectable homodimerization"}]}
{"molecule": "B2", "values": [{"measurement": "background binding signal in the absence of any small molecule", "setting": "[3]", "value": "virtual absence of any background signal; also recorded: does not trigger any detectable signal"}, {"measurement": "affinity towards acVHH-V104D", "setting": "[3]", "value": "high affinity in the nanomolar range"}, {"measurement": "affinity (KD) to acVHH-V104D", "setting": "[3]", "value": "low nM range"}, {"measurement": "dependency of heterodimerization with acVHH-V104D on the presence of caffeine", "setting": "[3]", "value": "clear dependency"}, {"measurement": "intracellular binding with acVHH-V104D", "setting": "[2]; [5]", "value": "weak"}, {"measurement": "background signal at very low concentrations of caffeine", "setting": "[2]", "value": "strongly reduced"}, {"measurement": "background signal in the absence of caffeine", "setting": "[2]", "value": "strongly reduced"}]}
{"molecule": "B3", "values": [{"measurement": "intracellular homodimerization of acVHH-WT", "setting": "[4]; +/- 30 μM caffeine", "value": "shows homodimerization, which is enhanced by addition of caffeine"}, {"measurement": "intracellular homodimerization of acVHH-WT", "setting": "[4]; [6]", "value": "shows homodimerization, which is enhanced by addition of caffeine"}, {"measurement": "intracellular binding with acVHH-V104D", "setting": "[2]; [6]", "value": "very weak heterodimerization"}]}
{"molecule": "B4", "values": [{"measurement": "background binding signal in the absence of any small molecule", "setting": "[3]", "value": "virtual absence of any background signal"}, {"measurement": "affinity towards acVHH-V104D", "setting": "[3]", "value": "high affinity in the nanomolar range"}, {"measurement": "dependency of heterodimerization with acVHH-V104D on the presence of caffeine", "setting": "[3]", "value": "clear dependency"}, {"measurement": "intracellular binding with acVHH-V104D", "setting": "[2]; [5]", "value": "not detectable"}, {"measurement": "background signal in the absence of caffeine", "setting": "[2]", "value": "strongly reduced"}]}
{"molecule": "B5", "values": [{"measurement": "background binding signal in the absence of any small molecule", "setting": "[3]", "value": "does not trigger any detectable signal"}, {"measurement": "affinity towards acVHH-V104D", "setting": "[3]", "value": "high affinity in the nanomolar range"}, {"measurement": "affinity (KD) to acVHH-V104D", "setting": "[3]", "value": "low nM range"}, {"measurement": "intracellular binding with acVHH-V104D", "setting": "[2]; [5]", "value": "efficient heterodimerization"}, {"measurement": "background signal at very low concentrations of caffeine", "setting": "[2]", "value": "strongly reduced"}, {"measurement": "background signal in the absence of caffeine", "setting": "[2]", "value": "strongly reduced"}]}
{"molecule": "B6", "values": [{"measurement": "background binding signal in the absence of any small molecule", "setting": "[3]", "value": "does not trigger any detectable signal"}, {"measurement": "affinity towards acVHH-V104D", "setting": "[3]", "value": "high affinity in the nanomolar range"}, {"measurement": "affinity (KD) to acVHH-V104D", "setting": "[3]", "value": "low nM range"}, {"measurement": "intracellular binding with acVHH-V104D", "setting": "[2]; [5]", "value": "efficient heterodimerization"}, {"measurement": "background signal at very low concentrations of caffeine", "setting": "[2]", "value": "strongly reduced"}, {"measurement": "background signal in the absence of caffeine", "setting": "[2]", "value": "strongly reduced"}]}
